Key:
[1] = molecular target: HLA-A*30:01; test: IEDB peptide-MHC binding, purified MHC/competitive/radioactivity; filed as Kd, often an IC50 or EC50 that approximates it; ≥ and ≤ were set here for values at or beyond the usual limits of such assays
[2] = molecular target: HLA-A*30:02; test: as above
[3] = molecular target: HLA-A*01:01; test: IEDB peptide-MHC binding, purified MHC/direct/fluorescence; filed as Kd, often an IC50 or EC50 that approximates it; ≥ and ≤ were set here for values at or beyond the usual limits of such assays
[4] = molecular target: HLA-A*01:01; test: IEDB peptide-MHC binding, purified MHC/competitive/radioactivity; filed as Kd, often an IC50 or EC50 that approximates it; ≥ and ≤ were set here for values at or beyond the usual limits of such assays
[5] = molecular target: HLA-A*02:01; test: IEDB peptide-MHC binding, purified MHC/competitive/fluorescence; ≥ and ≤ were set here for values at or beyond the usual limits of such assays
[6] = molecular target: HLA-A*03:01; test: IEDB peptide-MHC binding, purified MHC/direct/fluorescence; filed as Kd, often an IC50 or EC50 that approximates it; ≥ and ≤ were set here for values at or beyond the usual limits of such assays
[7] = molecular target: HLA-B*58:01; test: as above
[8] = molecular target: HLA-A*32:01; test: IEDB peptide-MHC binding, purified MHC/competitive/radioactivity; filed as Kd, often an IC50 or EC50 that approximates it; ≥ and ≤ were set here for values at or beyond the usual limits of such assays
[9] = molecular target: HLA-A*02:01; test: IEDB peptide-MHC binding, purified MHC/competitive/fluorescence; filed as Kd, often an IC50 or EC50 that approximates it; ≥ and ≤ were set here for values at or beyond the usual limits of such assays
[10] = molecular target: HLA-A*11:01; test: IEDB peptide-MHC binding, purified MHC/direct/fluorescence; filed as Kd, often an IC50 or EC50 that approximates it; ≥ and ≤ were set here for values at or beyond the usual limits of such assays
[11] = molecular target: HLA-B*15:01; test: as above
[12] = molecular target: HLA-A*31:01; test: as above
[13] = molecular target: HLA-A*02:01; test: as above
[14] = molecular target: HLA-A*68:01; test: IEDB peptide-MHC binding, purified MHC/competitive/radioactivity; filed as Kd, often an IC50 or EC50 that approximates it; ≥ and ≤ were set here for values at or beyond the usual limits of such assays
[15] = molecular target: HLA-A*26:01; test: as above
[16] = molecular target: HLA-A*69:01; test: IEDB peptide-MHC binding, purified MHC/direct/fluorescence; filed as Kd, often an IC50 or EC50 that approximates it; ≥ and ≤ were set here for values at or beyond the usual limits of such assays
[17] = molecular target: HLA-B*27:05; test: as above; settings: source organism: SARS-CoV1
[18] = molecular target: HLA-A*33:01; test: IEDB peptide-MHC binding, purified MHC/competitive/radioactivity; filed as Kd, often an IC50 or EC50 that approximates it; ≥ and ≤ were set here for values at or beyond the usual limits of such assays; settings: source organism: SARS coronavirus Tor2
[19] = molecular target: HLA-B*07:02; test: IEDB peptide-MHC binding, purified MHC/direct/fluorescence; filed as Kd, often an IC50 or EC50 that approximates it; ≥ and ≤ were set here for values at or beyond the usual limits of such assays; settings: source organism: Mus musculus
[20] = source organism: Dengue virus 1 Brazil/97-11/1997
[21] = source organism: Dengue virus 2 16681-PDK53
[22] = source organism: Dengue virus 3 Martinique/1243/1999
[23] = source organism: Sudan ebolavirus
[24] = source organism: Vaccinia virus WR
[25] = source organism: Mycobacterium tuberculosis
[26] = source organism: Zaire ebolavirus
[27] = source organism: Vibrio vulnificus
[28] = source organism: Dengue virus 2 Jamaica/1409/1983
[29] = source organism: Haemophilus influenzae
[30] = source organism: Entamoeba histolytica HM-1:IMSS

Question: Which Kd [1, 20] does the source give for IVREAIKRK here?
Answer: 97.7 nM

Question: With KMEALQRKY as the sequence, how does the Kd [2, 21] read?
Answer: 61.4 nM

Question: For ISEKLRSGY, which Kd ([3]; source organism: Influenza A virus (A/Kinmen/645/04(H3N2))) is on record?
Answer: 467 nM

Question: With TSLTQKVVIF as the sequence, how does the Kd [4, 22] read?
Answer: 8960 nM

Question: With PLGVVTNST as the sequence, how does the IC50 [5, 23] read?
Answer: ≥ 114000 nM

Question: HLYYFITYY was tested. Which Kd ([6]; source organism: Giardia lamblia ATCC 50803) did it give?
Answer: 150 nM

Question: How did the Kd ([7]; source organism: Influenza A virus (A/New York/124/2001(H3N2))) turn out when SSSTEVETY was run?
Answer: 495 nM

Question: How did the Kd [8, 24] turn out when KVLFLQQSI was run?
Answer: 0.704 nM

Question: With LQRGRLPLV as the sequence, how does the Kd [1, 24] read?
Answer: 93.3 nM

Question: Which Kd [8, 24] does the source give for KLITFLFVI here?
Answer: 0.409 nM

Question: KIEIERKKL was tested. Which Kd [9, 24] did it give?
Answer: 422 nM

Question: For MCFHQHLMY, which Kd ([3]; source organism: Homo sapiens) is on record?
Answer: 3330 nM

Question: What about the Kd ([6]; source organism: Homo sapiens) of the same sequence?
Answer: 13600 nM

Question: What about the Kd ([10]; source organism: Homo sapiens) of the same sequence?
Answer: 8410 nM

Question: And the Kd ([11]; source organism: Homo sapiens)?
Answer: 1440 nM

Question: What about the Kd ([7]; source organism: Homo sapiens) of the same sequence?
Answer: 937 nM

Question: With QVDQGIEYY as the sequence, how does the Kd [3, 25] read?
Answer: 119 nM

Question: Which Kd [8, 24] does the source give for LMDMITLSL here?
Answer: 29.7 nM

Question: With VHSWEDIPY as the sequence, how does the Kd ([2]; source organism: Dengue virus 4 Philippines/H241/1956) read?
Answer: 3360 nM

Question: For FLWVIILFQ, which IC50 [5, 26] is on record?
Answer: 12700 nM

Question: How did the Kd [1, 24] turn out when KVYINHPFM was run?
Answer: 0.517 nM

Question: KTSCSKNEA was tested. Which Kd [1, 24] did it give?
Answer: 72.2 nM

Question: Which results are given for MQYMTIQQK?
Answer: Kd [6, 27]: 203 nM; Kd [12, 27]: 346 nM

Question: Which Kd [4, 22] does the source give for VSETQHGTIL here?
Answer: ≥ 70400 nM

Question: How did the Kd ([8]; source organism: Dengue virus 2 Peru/IQT2913/1996) turn out when ATYEPDVDL was run?
Answer: 7390 nM

Question: How did the Kd [13, 25] turn out when VLAGIFAGV was run?
Answer: ≤ 1 nM

Question: Which Kd [8, 28] does the source give for RIYSDPLAL here?
Answer: 14100 nM

Question: What does the source list for DVFYLPPEK?
Answer: Kd [1, 22]: 1370 nM; Kd [14, 22]: 5.57 nM

Question: LVSKFMSNG was tested. Which IC50 [5, 24] did it give?
Answer: ≥ 201000 nM

Question: For GAVKYLEGH, which IC50 [5, 26] is on record?
Answer: ≥ 521000 nM

Question: Which IC50 [5, 26] does the source give for GVKRLEELL here?
Answer: 49200 nM

Question: For SGVLWDVPSP, which Kd [1, 22] is on record?
Answer: 3670 nM

Question: SVIEKMEAL was tested. Which Kd [15, 21] did it give?
Answer: 51 nM

Question: For HWFSRENSY, which Kd [2, 22] is on record?
Answer: 246 nM

Question: How did the IC50 [5, 26] turn out when PQLSAIALG was run?
Answer: ≥ 423000 nM

Question: Which Kd [1, 24] does the source give for RYRQRLISL here?
Answer: 5.17 nM

Question: LMHAPAFET was tested. Which IC50 ([5]; source organism: Human alphaherpesvirus 1 strain 17) did it give?
Answer: 2000 nM

Question: For KSWGKAKII, which Kd [8, 20] is on record?
Answer: 47.4 nM

Question: How did the Kd ([9]; source organism: Vaccinia virus Tian Tan) turn out when KIDTTHVSKV was run?
Answer: 206 nM

Question: Which Kd [13, 29] does the source give for ALGYTTEEI here?
Answer: 338 nM

Question: What about the Kd [16, 29] of the same sequence?
Answer: 7480 nM

Question: YSDPLALRE was tested. Which Kd [4, 20] did it give?
Answer: 262 nM

Question: What does the source list for AMVPLVMVI?
Answer: Kd [13, 29]: 435 nM; Kd [16, 29]: 3430 nM; Kd [11, 29]: 834 nM

Question: SLYGRYNCK was tested. Which Kd ([6]; source organism: Mammarenavirus tacaribeense) did it give?
Answer: 89 nM

Question: How did the Kd [2, 28] turn out when KAKGSRAIWY was run?
Answer: 6.68 nM

Question: Which Kd [13, 27] does the source give for VQLLGRRFV here?
Answer: ≥ 20000 nM

Question: And the Kd [16, 27]?
Answer: ≥ 20000 nM

Question: IIHDFIDNP was tested. Which IC50 [5, 23] did it give?
Answer: ≥ 85400 nM

Question: For RTYGLRNSL, which Kd [8, 24] is on record?
Answer: 0.626 nM

Question: Which Kd [1, 28] does the source give for TFKNPHAKK here?
Answer: 1460 nM

Question: ATFSVPMEK was tested. Which Kd ([12]; source organism: SARS-CoV1) did it give?
Answer: 141 nM

Question: And the Kd [17]?
Answer: 19000 nM

Question: What about the Kd [18] of the same sequence?
Answer: 14500 nM

Question: And the Kd ([14]; source organism: SARS coronavirus Tor2)?
Answer: 0.161 nM

Question: With LWRTLGRNK as the sequence, how does the Kd [1, 22] read?
Answer: 478 nM

Question: For RSCTLPPLRY, which Kd [2, 28] is on record?
Answer: 15.5 nM

Question: How did the Kd [15, 22] turn out when GVVTKNGGY was run?
Answer: 1210 nM

Question: And the Kd [2, 22]?
Answer: ≥ 61300 nM

Question: With HLMFYTLPI as the sequence, how does the Kd [8, 24] read?
Answer: 0.177 nM

Question: Which Kd [1, 24] does the source give for HTRDPQNAA here?
Answer: 0.907 nM

Question: With GMLECGFPT as the sequence, how does the Kd [13, 30] read?
Answer: 4.8 nM

Question: What about the Kd [16, 30] of the same sequence?
Answer: ≥ 5000 nM

Question: TTKATTQIA was tested. Which Kd [1, 24] did it give?
Answer: 6.52 nM

Question: Which Kd [1, 28] does the source give for KLKPRWLDA here?
Answer: 21 nM

Question: Which IC50 [5, 26] does the source give for RGTTFAEGV here?
Answer: 9300 nM

Question: With RAWDPQPAM as the sequence, how does the Kd [19] read?
Answer: 36.4 nM

Question: With MTMNIVNFF as the sequence, how does the Kd [8, 24] read?
Answer: 1.93 nM

Question: TTTLEETKF was tested. Which Kd ([10]; source organism: SARS-CoV1) did it give?
Answer: ≥ 109000 nM

Question: And the Kd ([7]; source organism: SARS-CoV1)?
Answer: 11700 nM

Question: For RAVLDDGIY, which Kd [2, 20] is on record?
Answer: 44.8 nM

Question: Which Kd [2, 22] does the source give for IGNEEFLDY here?
Answer: 961 nM

Question: KQNHMQILK was tested. Which Kd ([6]; source organism: Francisella tularensis subsp. holarctica LVS) did it give?
Answer: 156 nM

Question: How did the Kd [1, 24] turn out when SVRLLNYFK was run?
Answer: 0.238 nM

Source: the Immune Epitope Database (IEDB)
